Test results: PMC2132798 (The Journal of Cell Biology, 1998)

B1: Myo5p (1,082–1,219) (domain or fragment, S. cerevisiae, UniProt Q04439 1082-1219, looked up)
chain: SSKPKEPMFEAAYDFPGSGSPSELPLKKGDVIYITREEPSGWSLGKLLDGSKEGWVPTAYMKPHSGNNNIPTPPQNRDVPKPVLNSVQHDNTSANVIPAAAQASLGDGLANALAARANKMRLESDDEEANEDEEEDDW
B2: Vrp1p (195–817) (domain or fragment, S. cerevisiae, UniProt P37370 195-817, looked up)
chain: HMPSVRPAHRSHQRKSSNISLPSVSAPPLPSASLPTHVSNPPQAPPPPPTPTIGLDSKNIKPTDNAVSPPSSEVPAGGLPFLAEINARRSERGAVEGVSSTKIQTENHKSPSQPPLPSSAPPIPTSHAPPLPPTAPPPPSLPNVTSAPKKATSAPAPPPPPLPAAMSSASTNSVKATPVPPTLAPPLPNTTSVPPNKASSMPAPPPPPPPPPGAFSTSSALSASSIPLAPLPPPPPPSVATSVPSAPPPPPTLTTNKPSASSKQSKISSSSSSSAVTPGGPLPFLAEIQKKRDDRFVVGGDTGYTTQDKQEDVIGSSKDDNVRPSPISPSINPPKQSSQNGMSFLDEIESKLHKQTSSNAFNAPPPHTDAMAPPLPPSAPPPPITSLPTPTASGDDHTNDKSETVLGMKKAKAPALPGHVPPPPVPPVLSDDSKNNVPAASLLHDVLPSSNLEKPPSPPVAAAPPLPTFSAPSLPQQSVSTSIPSPPPVAPTLSVRTETESISKNPTKSPPPPPSPSTMDTGTSNSPSKNLKQRLFSTGGSTLQHKHNTHTNQPDVDVGRYTIGGSNSIVGAKSGNERIVIDDSRFKWTNVSQMPKPRPFQNKTKLYPSGKGSSVPLDLTLFT
B3: Myo3p (1,118–1,271) (domain or fragment, S. cerevisiae, UniProt P36006 1118-1271, looked up)
chain: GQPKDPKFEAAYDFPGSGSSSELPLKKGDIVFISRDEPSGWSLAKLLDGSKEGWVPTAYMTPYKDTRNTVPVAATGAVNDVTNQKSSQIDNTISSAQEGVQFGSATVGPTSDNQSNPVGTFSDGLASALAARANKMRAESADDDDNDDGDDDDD
B4: Vrp1p (1–200) (domain or fragment, S. cerevisiae, UniProt P37370 1-200, looked up)
chain: MAGAPAPPPPPPPPALGGSAPKPAKSVMQGRDALLGDIRKGMKLKKAETNDRSAPIVGGGVVSSASGSSGTVSSKGPSMSAPPIPGMGAPQLGDILAGGIPKLKHINNNASTKPSPSASAPPIPGAVPSVAAPPIPNAPLSPAPAVPSIPSSSAPPIPDIPSSAAPPIPIVPSSPAPPLPLSGASAPKVPQNRPHMPSVR

Experiments:
Test in all cases: two-hybrid
Vrp1p (1–200) = target: B4
Vrp1p (195–817) = target: B2
Myo3p (1,118–1,271) = target: B3
Myo5p (1,082–1,219) = target: B1

| lacZ activity (Miller units) (Myo3p (1,118–1,271)) | lacZ activity (Miller units) (Myo5p (1,082–1,219)) | Binder | lacZ activity (Miller units) (Vrp1p (1–200)) | lacZ activity (Miller units) (Vrp1p (195–817)) |
| --- | --- | --- | --- | --- |
| – | – | B1 | 1060 ± 149 | 345 ± 7.3 |
| 74.5 ± 4.3 | 28.5 ± 2 | B2 | – | – |
| – | – | B3 | 1610 ± 264 | 96.3 ± 21.8 |
| 254 ± 27.1 | 140 ± 2.3 | B4 | – | – |
